Km, kcat and kcat/Km data for 5 proteins are collected here from publication PMC4021431, “Identification of glutathione (GSH)-independent glyoxalase III from Schizosaccharomyces pombe” (BMC Evolutionary Biology, 2014).

Common to all, as to experiment: DNPH colorimetric glyoxalase III assay, A540
Substrate in data set [1]: CC(=O)C=O
In kind it is biochemical, Saccharomyces cerevisiae. The following applies: GSH-independent, 100 mM Na3PO4 pH 6.8, 45 °C. An excerpt: DNPH colorimetric glyoxalase III assay, A540 on ScHsp31

Substrate in data set [2]: CC(=O)C=O
In kind it is biochemical, Schizosaccharomyces pombe. The following applies: GSH-independent, 100 mM Na3PO4 pH 6.8, 45 °C. The text has this:
DNPH colorimetric glyoxalase III assay, A540 on Hsp3101

Substrate in data set [3]: CC(=O)C=O
In kind it is biochemical, Schizosaccharomyces pombe. Conditions: GSH-independent, 100 mM Na3PO4 pH 6.8, 45 °C. An excerpt: DNPH colorimetric glyoxalase III assay, A540 on Hsp3102
This is another data set of the same source.

Substrate in data set [4]: CC(=O)C=O
In kind it is biochemical, Schizosaccharomyces pombe. The following applies: GSH-independent, 100 mM Na3PO4 pH 6.8, 45 °C, MG 0.5-3 mM (below Km). An excerpt:
DNPH colorimetric glyoxalase III assay, A540 on SpDJ-1

B1: ScHsp31 (Saccharomyces cerevisiae S288C) (protein)
chain: MAPKKVLLALTSYNDVFYSDGAKTGVFVVEALHPFNTFRKEGFEVDFVSETGKFGWDEHSLAKDFLNGQDETDFKNKDSDFNKTLAKIKTPKEVNADDYQIFFASAGHGTLFDYPKAKDLQDIASEIYANGGVVAAVCHGPAIFDGLTDKKTGRPLIEGKSITGFTDVGETILGVDSILKAKNLATVEDVAKKYGAKYLAPVGPWDDYSITDGRLVTGVNPASAHSTAVRSIDALKN
notes: full length (237 aa), C-terminal His6 (pET28a), E. coli BL21(DE3), Ni-NTA
In the case of B1, in data set [1], the Km amounted to 1500 µM, the kcat stood at 1.25 s⁻¹ and the kcat/Km came to 850 M⁻¹ s⁻¹.

B2: Hsp3101 (Schizosaccharomyces pombe 972h-) (protein)
chain: MASEGKVLLVASSYYGPFYPDGMNTGVHFAELLIPYQVFREAGYEVQLTSETGKCKFDDHSIKKSALGEVERDAFDNKDNEFWYALKDIKPADKINYKEFCIMFIAGGHAAMFDLPHATNLQTLAQQIYASNGVLAAVCHGPVMLPFVDDTKSPEGRSVVYGKKVTAFNSTGELVMGVSSALRERNMQDLNSLFREAGAEFVDPPTPMSDFTQVDGRIVTGVNPMSAKSTAEAAIKVSQSLRKT
notes: full length (244 aa), C-terminal His6 (pET28a), E. coli BL21(DE3), Ni-NTA
B2: in data set [2], the Km is 1400 µM, the turnover number (kcat) was determined as 0.518 s⁻¹ and the kcat/Km was 383 M⁻¹ s⁻¹.

B3: Hsp3102 (Schizosaccharomyces pombe 972h-) (protein)
chain: MSIAKGKNALLVASSYYGPFYPDGKNTGVHFSELLIPYNVFKKAGFNVQFVSENGSYKFDDHSIEESKLGDFERKVFNDKNDDFWTNLNNMKKASDIVGKDYQLLFVAGGHAAMFDLPKATNLQAVAREVFTNGGVLSAVCHGPVLLANVKNPQSVEGKTVVYHKHVTAFNKAGEEKMGVMDELKKRGMKSLNEIFAEAGATFIDPPNPNVNFTQIDGKIVTGVNPQSAKSTAEAAVSAL
notes: full length (240 aa), C-terminal His tag (pESP3), expressed in S. pombe yAS56, Ni-NTA
For the protein B3, in data set [3], the Km stood at 2700 µM, the kcat was 0.967 s⁻¹ and the catalytic efficiency (kcat/Km) was 350 M⁻¹ s⁻¹.

B4: SpDJ-1 (Schizosaccharomyces pombe 972h-) (protein)
chain: MVKVCLFVADGTDEIEFSAPWGIFKRAEIPIDSVYVGENKDRLVKMSRDVEMYANRSYKEIPSADDFAKQYDIAIIPGGGLGAKTLSTTPFVQQVVKEFYKKPNKWIGMICAGTLTAKTSGLPNKQITGHPSVRGQLEEGGYKYLDQPVVLEENLITSQGPGTAMLFGLKLLEQVASKDKYNAVYKSLSMP
notes: full length (191 aa), C-terminal His6 (pET28a, NcoI/XhoI), E. coli BL21(DE3), Ni-NTA
Take B4: in data set [4], the Michaelis-Menten constant (Km) came out at 10800 µM, the turnover number (kcat) was 1.43 s⁻¹ and the kcat/Km was determined as 132 M⁻¹ s⁻¹.

B5: SpDJ-1 (Schizosaccharomyces pombe 972h-; H130A) (protein)
chain: MVKVCLFVADGTDEIEFSAPWGIFKRAEIPIDSVYVGENKDRLVKMSRDVEMYANRSYKEIPSADDFAKQYDIAIIPGGGLGAKTLSTTPFVQQVVKEFYKKPNKWIGMICAGTLTAKTSGLPNKQITGAPSVRGQLEEGGYKYLDQPVVLEENLITSQGPGTAMLFGLKLLEQVASKDKYNAVYKSLSMP
notes: as for B4
Turning to B5, in data set [4], the Km worked out at 37300 µM, the kcat is 1.09 s⁻¹ and the kcat/Km amounted to 30 M⁻¹ s⁻¹.

What is called Km is the concentration of substrate that gives half-maximal velocity. As a reminder, the kcat is the maximal rate divided by the concentration of active sites. The kcat/Km is the turnover number divided by the Michaelis constant.
